From patent US20230063420A1

Key:
[1] = target: cyno glucagon receptor (cyno); assay: cell-based or functional assay
[2] = target: GLP-1 receptor (Example 19, species not stated); assay: cell-based or functional assay

For semaglutide (peptide), the cGCGR pEC50, cAMP accumulation [1] was < 9 -log M, the pEC50, cAMP accumulation, 0% HSA [2] was 11.6 -log M and the pEC50, cAMP accumulation, 0.1% HSA [2] was 10.3 -log M. The pEC50, cAMP accumulation, 4% HSA [2] was 9.24 -log M.
